# Measurements from publication PMC7345789.
# Substitutions are numbered along the chain they refer to.
# B1: SHP2 N-SH2, Q06124 (protein)
# chain: WFHPNITGVEAENLLLTRGVDGSFLARPSKSNPGDFTLSVRRNGAVTHIKVQNTGDYYDLYGGEKFATLAELVQYYMEHHGQLKEKNGDVIELKYPL
# B2: SHP2 N-SH2, Q06124 (protein)
# chain: B1 chain with V51I, A67G
# B3: SHP2 N-SH2, Q06124 (protein)
# chain: B1 chain with T47S, V51I
# B4: SHP2 N-SH2, Q06124 (protein)
# chain: B1 chain with A45G, V51I
# B5: SHP2 N-SH2, Q06124 (protein)
# chain: B1 chain with V9A, V51I
# B6: SHP2 N-SH2, Q06124 (protein)
# chain: B1 chain with V51I, T68S
# B7: SHP2 N-SH2, Q06124 (protein)
# chain: B1 chain with T37S, V51I
# B8: SHP2 N-SH2, Q06124 (protein)
# chain: B1 chain with L14A, V51I
# B9: SHP2 N-SH2, Q06124 (protein)
# chain: B1 chain with I6V, V51I
# B10: SHP2 N-SH2, Q06124 (protein)
# chain: B1 chain with V51I, A70G
# B11: SHP2 N-SH2, Q06124 (protein)
# chain: B1 chain with V51I, V73A
# B12: SHP2 N-SH2, Q06124 (protein)
# chain: B1 chain with V40A, V51I
# B13: SHP2 N-SH2, Q06124 (protein)
# chain: B1 chain with A26G, V51I
# B14: SHP2 N-SH2, Q06124 (protein)
# chain: B1 chain with T17S, V51I
# B15: SHP2 N-SH2, Q06124 (protein)
# chain: B1 chain with V51I, L60A
# B16: SHP2 N-SH2, Q06124 (protein)
# chain: B1 chain with V20A, V51I
# B17: SHP2 N-SH2, Q06124 (protein)
# chain: B1 chain with V51I, I91V
# B18: SHP2 N-SH2, Q06124 (protein)
# chain: B1 chain with V51I, T54S
# B19: SHP2 N-SH2, Q06124 (protein)
# chain: B1 chain with I49V, V51I
# B20: SHP2 N-SH2, Q06124 (protein)
# chain: B1 chain with V51I, L83A
# B21: SHP2 N-SH2, Q06124 (protein)
# chain: B1 chain with V51I, L69A
# B22: SHP2 N-SH2, Q06124 (protein)
# chain: B1 chain with V51I, V90A
# B23: SHP2 N-SH2, Q06124 (protein)
# chain: B1 chain with T7S, V51I
# Biological target: Gab2 (Homo sapiens)
# Test: flow
row,Kd [nM],Binder
1,30,B1
2,170,B2
3,10,B3
4,70,B4
5,160,B5
6,110,B6
7,5,B7
8,170,B8
9,80,B9
10,110,B10
11,190,B11
12,230,B12
13,70,B13
14,100,B14
15,860,B15
16,100,B16
17,100,B17
18,120,B18
19,150,B19
20,730,B20
21,210,B21
22,130,B22
23,80,B23
